# According to patent US5985836A, “Alpha-1 proteinase inhibitor binding peptides” (Bayer Corporation, priority 1998, dated 1999):
# Ends that are not written are not given here.
# What was measured:
# [1] = biological target: T1, A1PI (Homo sapiens, UniProt P01009); assay: A1PI binding on peptide-resin column, injection of 1 mg A1PI in equilibration buffer; conditions: for % of Total A1PI Eluted by Fraction (Based on Absorbance at 280 nm), 1M NaCl / % of Total A1PI Eluted by Fraction (Based on Absorbance at 280 nm), 2% Acetic Acid / % of Total A1PI Eluted by Fraction (Based on Absorbance at 280 nm), Flowthrough: 1 mg A1PI; for Percent A1PI Eluted by Fraction Based on Absorbance at 280 nm, 1M NaCl / Percent A1PI Eluted by Fraction Based on Absorbance at 280 nm, 2% Acetic Acid / Percent A1PI Eluted by Fraction Based on Absorbance at 280 nm, Flowthrough / Percent A1PI Eluted by Fraction, 1M NaCl / Percent A1PI Eluted by Fraction, 2% Acetic Acid / Percent A1PI Eluted by Fraction, Flowthrough: 1 mg A1PI in equilibration buffer
# T1 construct: Human plasma is currently the only approved source of therapeutic AlPI
# T1 sequence (P01009 25-418): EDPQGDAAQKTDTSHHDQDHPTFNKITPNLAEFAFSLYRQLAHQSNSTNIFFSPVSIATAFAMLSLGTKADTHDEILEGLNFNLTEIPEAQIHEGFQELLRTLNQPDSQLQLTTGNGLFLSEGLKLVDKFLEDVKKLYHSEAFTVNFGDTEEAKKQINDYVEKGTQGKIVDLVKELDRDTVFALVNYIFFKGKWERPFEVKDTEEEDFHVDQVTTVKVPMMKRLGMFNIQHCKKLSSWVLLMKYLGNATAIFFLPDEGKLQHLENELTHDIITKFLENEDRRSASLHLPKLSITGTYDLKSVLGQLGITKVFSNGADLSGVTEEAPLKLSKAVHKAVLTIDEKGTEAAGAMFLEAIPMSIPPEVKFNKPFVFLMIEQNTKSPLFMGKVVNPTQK
# Protocol: (§1) Confirmatory binding assays were performed in a column chromatographic format on a microbore HPLC using individual peptide sequences synthesized directly onto the Toyopearl 650 M Chelate resin which had been modified with Totda followed by an alanine residue (A-Totda-Toyopearl), at a final substitution density of 0.1 mmole/g resin. The resin was packed into 0.4×5 cm columns (Thomson, Springfield, Va.) and tested on the Michrom HPLC system (Michrom BioResources, Auburn, Calif.). The elution program for all trials utilized the following method. The column was pre-equilibrated with equilibration buffer (as above). 1 ml of sample was injected and allowed sufficient time to flowthrough the column using equilibration buffer. The column was then washed with step elutions of 1M NaCl and 3M NaCl in equilibration buffer. The column was exposed to equilibration buffer with 0.1M NaCl. Any remaining protein was eluted with elution buffer (2% by volume glacial acetic acid in water).
# (§2) A Gilson FC204 fraction collector at the HPLC outlet collected individual eluates for further analysis. Fractions collected from the 2% acetic acid eluates were neutralized with 2M Tris, pH 10.5 to bring the pH to neutrality. The protein samples were reconstituted in equilibration buffer unless otherwise stated. The samples were analyzed by the integration of the absorbance at 280 nm or by immunonephelometry. The specific method of determination is presented for each figure.
# Tables 2 and 3 present the elution profiles for 19 sequences based on the injection of 1 mg AlPI in equilibration buffer at 4° C. and 20° C., respectively. The columns were run at a constant flow rate of865 μl/min (413 cm/hr) or 523 μl/min (250 cm/hr). No dependence of the elution profile with flow rate was found. The Percent AlPI Eluted by Fraction represents the amount eluted in the flowthrough, 1M NaCl wash, and 2% acetic acid fractions relative to the total AlPI eluted. The percentages are based on either the integration of the peak areas at […]
# [2] = biological target: T1, A1PI; assay: A1PI purification from 5 mg hSA + 1 mg A1PI on peptide column, A1PI mass balance; format: binding; conditions: A1PI, 5 mg hSA + 1 mg A1PI; for Percent Eluted by Fraction, 1M NaCl / Percent Eluted by Fraction, 2% Ac. Acid / Percent Eluted by Fraction, 3M NaCl / Percent Eluted by Fraction, Flow: relative to total eluted
# Protocol: as §1, §2
# Columns were assayed with a mixture of 5 mg human serum albumin (hSA)+1 mg AlPI at 4° C. (Table 4, Seq. ID 1-11, 15, 17) and 20° C. (Table 5, Seq. ID 1-10, 13, 15, 17). The chromatography method was modified to provide for a 10 minute residence time of sample in the column by decreasing the flow to 17 μl/min (10 cm/hr) upon injection. Following the incubation, the flow was set at 865 μl/min (413 cm/hr) for the step elutions of 1M NaCl, 3M NaCl, and 2% acetic acid. The mass balances presented are based upon immunonephelometry. The Percent Eluted value is protein-specific and based on the amount of the protein eluted in a […]
# [3] = 20° C., * Below detection limit
substance,measurement,setting,value
V I R L V R: VIWLVR with Trp at position 3 replaced by Arg (VIRLVR),"% of Total A1PI Eluted by Fraction (Based on Absorbance at 280 nm), 1M NaCl","[1]; Trp position mutations, 4° C.",90%
same,"% of Total A1PI Eluted by Fraction (Based on Absorbance at 280 nm), 2% Acetic Acid","[1]; Trp position mutations, 4° C.",10%
same,"% of Total A1PI Eluted by Fraction (Based on Absorbance at 280 nm), Flowthrough","[1]; Trp position mutations, 4° C.",0%
same,"% of Total A1PI Eluted by Fraction (Based on Absorbance at 280 nm), 1M NaCl","[1]; Trp position mutations, 20° C.",45%
same,"% of Total A1PI Eluted by Fraction (Based on Absorbance at 280 nm), 2% Acetic Acid","[1]; Trp position mutations, 20° C.",55%
same,"% of Total A1PI Eluted by Fraction (Based on Absorbance at 280 nm), Flowthrough","[1]; Trp position mutations, 20° C.",0%
"V K F L V R: point mutation of VIFLVR, position 2 (VKFLVR)","% of Total A1PI Eluted by Fraction (Based on Absorbance at 280 nm), 1M NaCl","[1]; VIFLVR point mutations, 4° C.",66%
same,"% of Total A1PI Eluted by Fraction (Based on Absorbance at 280 nm), 2% Acetic Acid","[1]; VIFLVR point mutations, 4° C.",34%
same,"% of Total A1PI Eluted by Fraction (Based on Absorbance at 280 nm), Flowthrough","[1]; VIFLVR point mutations, 4° C.",0%
same,"% of Total A1PI Eluted by Fraction (Based on Absorbance at 280 nm), 1M NaCl","[1]; VIFLVR point mutations, 20° C.",49%
same,"% of Total A1PI Eluted by Fraction (Based on Absorbance at 280 nm), 2% Acetic Acid","[1]; VIFLVR point mutations, 20° C.",51%
same,"% of Total A1PI Eluted by Fraction (Based on Absorbance at 280 nm), Flowthrough","[1]; VIFLVR point mutations, 20° C.",0%
"V R F L V R: point mutation of VIFLVR, position 2 (VRFLVR)","% of Total A1PI Eluted by Fraction (Based on Absorbance at 280 nm), 1M NaCl","[1]; VIFLVR point mutations, 4° C.",39%
same,"% of Total A1PI Eluted by Fraction (Based on Absorbance at 280 nm), 2% Acetic Acid","[1]; VIFLVR point mutations, 4° C.",61%
same,"% of Total A1PI Eluted by Fraction (Based on Absorbance at 280 nm), Flowthrough","[1]; VIFLVR point mutations, 4° C.",0%
"VIFLVA: point mutation of VIFLVR, position 6, C-terminal Arg replaced with Ala",binding of AlPI (in words),[1],little binding of AlPI
same,"% of Total A1PI Eluted by Fraction (Based on Absorbance at 280 nm), 1M NaCl","[1]; VIFLVR point mutations, 4° C.",2%
same,"% of Total A1PI Eluted by Fraction (Based on Absorbance at 280 nm), 2% Acetic Acid","[1]; VIFLVR point mutations, 4° C.",21%
same,"% of Total A1PI Eluted by Fraction (Based on Absorbance at 280 nm), Flowthrough","[1]; VIFLVR point mutations, 4° C.",77%
same,"% of Total A1PI Eluted by Fraction (Based on Absorbance at 280 nm), 1M NaCl","[1]; VIFLVR point mutations, 20° C.",0%
same,"% of Total A1PI Eluted by Fraction (Based on Absorbance at 280 nm), 2% Acetic Acid","[1]; VIFLVR point mutations, 20° C.",8%
same,"% of Total A1PI Eluted by Fraction (Based on Absorbance at 280 nm), Flowthrough","[1]; VIFLVR point mutations, 20° C.",92%
WIKWTK,"Percent A1PI Eluted by Fraction Based on Absorbance at 280 nm, 1M NaCl",[1]; 4° C.,100%
same,"Percent A1PI Eluted by Fraction Based on Absorbance at 280 nm, 2% Acetic Acid",[1]; 4° C.,0%
same,"Percent A1PI Eluted by Fraction Based on Absorbance at 280 nm, Flowthrough",[1]; 4° C.,0%
same,"Percent A1PI Eluted by Fraction, 1M NaCl",[1]; 20° C.,91%
same,"Percent A1PI Eluted by Fraction, 2% Acetic Acid",[1]; 20° C.,2%
same,"Percent A1PI Eluted by Fraction, Flowthrough",[1]; 20° C.,7%
same,"Mass Protein per Eluate Fraction, 1M NaCl",[2]; [3],0.80 mg
same,"Mass Protein per Eluate Fraction, Flow",[2]; [3],0.02 mg
same,"Percent Eluted by Fraction, 1M NaCl",[2]; 20° C.,97%
same,"Percent Eluted by Fraction, 2% Ac. Acid",[2]; 20° C.,0%
same,"Percent Eluted by Fraction, 3M NaCl",[2]; 20° C.,0%
same,"Percent Eluted by Fraction, Flow",[2]; 20° C.,3%
WKLWRW,"Percent A1PI Eluted by Fraction Based on Absorbance at 280 nm, 1M NaCl",[1]; 4° C.,80%
same,"Percent A1PI Eluted by Fraction Based on Absorbance at 280 nm, 2% Acetic Acid",[1]; 4° C.,20%
same,"Percent A1PI Eluted by Fraction Based on Absorbance at 280 nm, Flowthrough",[1]; 4° C.,0%
same,"Percent A1PI Eluted by Fraction, 1M NaCl",[1]; 20° C.,67%
same,"Percent A1PI Eluted by Fraction, 2% Acetic Acid",[1]; 20° C.,33%
same,"Percent A1PI Eluted by Fraction, Flowthrough",[1]; 20° C.,0%
same,"Mass Protein per Eluate Fraction, 1M NaCl","[2]; 4° C., * Below detection limit",0.44 mg
same,"Mass Protein per Eluate Fraction, 2% Ac. Acid","[2]; 4° C., * Below detection limit",0.06 mg
same,"Mass Protein per Eluate Fraction, Flow","[2]; 4° C., * Below detection limit",0.17 mg
same,"Percent Eluted by Fraction, 1M NaCl",[2]; 4° C.,66%
same,"Percent Eluted by Fraction, 2% Ac. Acid",[2]; 4° C.,9%
same,"Percent Eluted by Fraction, Flow",[2]; 4° C.,25%
same,"Mass Protein per Eluate Fraction, 1M NaCl",[2]; [3],0.15 mg
same,"Mass Protein per Eluate Fraction, 2% Ac. Acid",[2]; [3],0.40 mg
same,"Mass Protein per Eluate Fraction, 3M NaCl",[2]; [3],0.05 mg
same,"Mass Protein per Eluate Fraction, Flow",[2]; [3],0.16 mg
same,"Percent Eluted by Fraction, 1M NaCl",[2]; 20° C.,20%
same,"Percent Eluted by Fraction, 2% Ac. Acid",[2]; 20° C.,52%
same,"Percent Eluted by Fraction, 3M NaCl",[2]; 20° C.,7%
same,"Percent Eluted by Fraction, Flow",[2]; 20° C.,21%
WSSKRY,"Percent A1PI Eluted by Fraction Based on Absorbance at 280 nm, 1M NaCl",[1]; 4° C.,91%
same,"Percent A1PI Eluted by Fraction Based on Absorbance at 280 nm, 2% Acetic Acid",[1]; 4° C.,9%
same,"Percent A1PI Eluted by Fraction Based on Absorbance at 280 nm, Flowthrough",[1]; 4° C.,0%
same,"Percent A1PI Eluted by Fraction, 1M NaCl",[1]; 20° C.,97%
same,"Percent A1PI Eluted by Fraction, 2% Acetic Acid",[1]; 20° C.,3%
same,"Percent A1PI Eluted by Fraction, Flowthrough",[1]; 20° C.,0%
